# Assay results reported in US20220411483A1 (Chugai, published 2022).
# Numbering of substitutions follows the chain as printed. Numbers in names are those of the source.
# B1: IL6R-BP325/IL6R-L (antibody, human IgG1, kappa, name in EU numbering)
# heavy: QVQLQESGPGLVKPSETLSLTCAVSGHSISHDHAWSWVRQPPGEGLEWIGFISYSGITNYNPSLQGRVTISRDNSKNTLYLQMNSLRAEDTAVYYCARSLARTTAMDYWGEGTLVTVSSASTKGPSVFPLAPSSKSTSGGTAALGCLVKDYFPEPVTVSWNSGALTSGVHTFPAVLQSSGLYSLSSVVTVPSSSLGTQTYICNVNHKPSNTKVDKKVEPKSCDKTHTCPPCPAPDLLGDDSVFLFPPKPKDTLMISRTPEVTCVVVSVSEEDGEVKFNWYVDGVEVHNAKTKPREEQYNSTYRVVSVLTVLHQDWLNGKEYKCKVSNKALPAPIEKTISKAKGQPREPQVYTLPPSRDELTKNQVSLTCLVKGFYPSDIAVEWESNGQPENNYKTTPPVLDSDGSFFLYSKLTVDKSRWQQGNVFSCSVMHEALHNHYTQESLSLSP
# light: not shown
# B2: IL6R-BP267/IL6R-L (antibody, human IgG1, kappa)
# heavy: B1 heavy with S267D
# light: not shown
# notes: IL6R-BF648 with E233D/G237D/H268E/P271G
# B3: IL6R-BP355/IL6R-L (antibody, human IgG1, kappa, name in EU numbering)
# heavy: B1 heavy with S267D, S269K
# light: not shown
# B4: IL6R-BP324/IL6R-L (antibody, human IgG1, kappa, name in EU numbering)
# heavy: B1 heavy with S267R
# light: not shown
# B5: IL6R-BP365/IL6R-L (antibody, human IgG1, kappa, name in EU numbering)
# heavy: B1 heavy with S267D, S269Y
# light: not shown
# B6: IL6R-PD033/IL6R-L (antibody, human IgG1, kappa)
# heavy: B1 heavy with D235E, L236K, D239G, M254Y, S267D, E270H, G273P, N436Y, E441K
# light: not shown
# notes: human IgG1
# B7: IL6R-PD026/IL6R-L (antibody, human IgG1, kappa)
# heavy: B1 heavy with D235E, L236A, D239G, M254Y, S267D, E270H, G273P, N436Y, E441K
# light: not shown
# notes: human IgG1
# B8: IL6R-PD038/IL6R-L (antibody, human IgG1, kappa)
# heavy: B1 heavy with D235E, L236R, D239G, M254Y, S267D, E270H, G273P, N436Y, E441K
# light: not shown
# notes: human IgG1
# B9: IL6R-PD072/IL6R-L (antibody, human IgG1, kappa)
# heavy: B1 heavy with D235E, G238Q, D239G, M254Y, S267D, E270H, G273P, N436Y, E441K
# light: not shown
# notes: human IgG1
# B10: IL6R-PD031/IL6R-L (antibody, human IgG1, kappa)
# heavy: B1 heavy with D235E, L236H, D239G, M254Y, S267D, E270H, G273P, N436Y, E441K
# light: not shown
# notes: human IgG1
# B11: IL6R-PD035/IL6R-L (antibody, human IgG1, kappa)
# heavy: B1 heavy with D235E, L236N, D239G, M254Y, S267D, E270H, G273P, N436Y, E441K
# light: not shown
# notes: human IgG1
# B12: IL6R-PD044/IL6R-L (antibody, human IgG1, kappa)
# heavy: B1 heavy with D235E, L237A, D239G, M254Y, S267D, E270H, G273P, N436Y, E441K
# light: not shown
# notes: human IgG1
# B13: IL6R-PD085/IL6R-L (antibody, human IgG1, kappa)
# heavy: B1 heavy with D235E, D239K, M254Y, S267D, E270H, G273P, N436Y, E441K
# light: not shown
# notes: human IgG1
# B14: IL6R-F652/IL6R-L (antibody, human IgG1, kappa)
# heavy: B1 heavy with D235E, D239G, M254Y, S267D, E270H, G273P, N436Y, E441K
# light: not shown
# notes: human IgG1
# B15: IL6R-PD090/IL6R-L (antibody, human IgG1, kappa)
# heavy: B1 heavy with D235E, D239R, M254Y, S267D, E270H, G273P, N436Y, E441K
# light: not shown
# notes: human IgG1
# Biological target: T1, FcgRIIaR (human, UniProt P12318 34-217)
# T1 construct: extracellular domain; also called FcγRIIa R type; FcγRIIa (R type)
# T1 sequence (looked up): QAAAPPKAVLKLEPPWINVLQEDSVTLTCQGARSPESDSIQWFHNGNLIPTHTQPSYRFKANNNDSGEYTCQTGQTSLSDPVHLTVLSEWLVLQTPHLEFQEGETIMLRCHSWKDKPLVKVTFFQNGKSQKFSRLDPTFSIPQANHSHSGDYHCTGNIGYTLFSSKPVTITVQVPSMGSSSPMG
# Test: SPR, amount bound per captured antibody
row,Binder,Relative FcgRIIaR-binding Activity [IL6R-BP267/IL6R-L=100]
1,B1,11.6
2,B2,100
3,B3,11.6
4,B4,3.7

# Biological target: T2, FcgRIIb (human, UniProt P31994 43-217)
# T2 construct: extracellular domain; also called FcγRIIb
# T2 sequence (looked up): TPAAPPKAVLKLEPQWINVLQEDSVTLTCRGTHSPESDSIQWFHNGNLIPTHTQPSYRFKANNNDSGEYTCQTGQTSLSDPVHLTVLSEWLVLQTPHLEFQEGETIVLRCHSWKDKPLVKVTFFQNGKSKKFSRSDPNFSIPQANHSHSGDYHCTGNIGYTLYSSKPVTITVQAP
# Test: SPR, amount bound per captured antibody
row,Binder,Relative FcgRIIb-binding Activity [IL6R-BP267/IL6R-L=100]
1,B5,16.7
2,B1,21
3,B2,100
4,B3,14.4
5,B4,3.2

# Biological target: T3, FcγRIIa R type extracellular domain with C-terminal His tag (human, UniProt P12318 34-217)
# T3 construct: extracellular domain; also called FcgRIIaR; not shown: His tag at the C terminus
# T3 sequence (looked up): T1 sequence (looked up)
# Test: SPR; amount bound divided by amount of IL6R-F652/IL6R-L bound, x100
row,Binder,Relative FcgRIIaR-binding Activity
1,B6,11.2
2,B7,67.2
3,B8,7.8
4,B9,20.6
5,B10,41.8
6,B11,44.4
7,B12,37.7
8,B13,0.5
9,B14,100
10,B15,7.9

# Biological target: T4, FcγRIIb extracellular domain with C-terminal His tag (human, UniProt P31994 43-217)
# T4 construct: extracellular domain; also called FcgRIIb; not shown: His tag at the C terminus
# T4 sequence (looked up): T2 sequence (looked up)
# Test: as above
row,Binder,Relative FcgRIIb-binding Activity
1,B6,6.2
2,B7,37.2
3,B8,5.4
4,B9,10.4
5,B10,27.6
6,B11,38.3
7,B12,7.9
8,B13,11.8
9,B14,100
10,B15,23.7
